Test results: article PMC3651084

These substances were tested against recombinant human HER3-Fc chimera (UniProt P21860) (assay: flow cytometry on staphylococcal-displayed mutants). Details: parent: est. 83; read off a plot.
UniProt P21860, sequence (P21860 20-643, change not shown): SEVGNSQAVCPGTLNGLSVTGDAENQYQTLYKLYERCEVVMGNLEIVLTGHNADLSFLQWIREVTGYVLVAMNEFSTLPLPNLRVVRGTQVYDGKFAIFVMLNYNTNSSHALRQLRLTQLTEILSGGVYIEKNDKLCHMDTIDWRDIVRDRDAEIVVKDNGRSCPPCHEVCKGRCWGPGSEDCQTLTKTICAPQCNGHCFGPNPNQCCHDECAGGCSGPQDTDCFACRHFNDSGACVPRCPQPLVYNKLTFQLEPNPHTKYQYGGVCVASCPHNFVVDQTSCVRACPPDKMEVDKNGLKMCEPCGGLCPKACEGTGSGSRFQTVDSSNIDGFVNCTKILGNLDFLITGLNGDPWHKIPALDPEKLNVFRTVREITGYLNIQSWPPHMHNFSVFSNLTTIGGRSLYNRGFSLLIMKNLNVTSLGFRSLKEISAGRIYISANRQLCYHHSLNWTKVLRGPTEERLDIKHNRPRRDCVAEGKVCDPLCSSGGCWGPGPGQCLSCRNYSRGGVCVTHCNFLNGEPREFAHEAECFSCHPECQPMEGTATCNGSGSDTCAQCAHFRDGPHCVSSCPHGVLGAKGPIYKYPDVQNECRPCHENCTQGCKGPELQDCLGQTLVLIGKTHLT

Substance | response
HER3-binding Affibody molecule Z05416, displayed on S. carnosus R25A | 91
HER3-binding Affibody molecule Z05416, displayed on S. carnosus K27A | 100
HER3-binding Affibody molecule Z05416, displayed on S. carnosus Q35A | 92
HER3-binding Affibody molecule Z05416, displayed on S. carnosus W17A | 10
HER3-binding Affibody molecule Z05416, displayed on S. carnosus S32A | 93
HER3-binding Affibody molecule Z05416, displayed on S. carnosus Y13A | 66
HER3-binding Affibody molecule Z05416, displayed on S. carnosus A28L | 87
HER3-binding Affibody molecule Z05416, displayed on S. carnosus Y10A | 10

Other lines, results leading:

response | Substance
71 | HER3-binding Affibody molecule Z05416, displayed on S. carnosus Q18A
72 | HER3-binding Affibody molecule Z05416, displayed on S. carnosus F14A
43 | HER3-binding Affibody molecule Z05416, displayed on S. carnosus K9A
78 | HER3-binding Affibody molecule Z05416, displayed on S. carnosus V24A
86 | HER3-binding Affibody molecule Z05416, displayed on S. carnosus T11A
